Assay results: publication doi:10.1101/608273

Molecular target: dNxf2^UBA (recombinant) (Drosophila) (UniProt Q9VV73)
Assay: ITC

Sequence of UniProt Q9VV73 (Q9VV73 whole entry): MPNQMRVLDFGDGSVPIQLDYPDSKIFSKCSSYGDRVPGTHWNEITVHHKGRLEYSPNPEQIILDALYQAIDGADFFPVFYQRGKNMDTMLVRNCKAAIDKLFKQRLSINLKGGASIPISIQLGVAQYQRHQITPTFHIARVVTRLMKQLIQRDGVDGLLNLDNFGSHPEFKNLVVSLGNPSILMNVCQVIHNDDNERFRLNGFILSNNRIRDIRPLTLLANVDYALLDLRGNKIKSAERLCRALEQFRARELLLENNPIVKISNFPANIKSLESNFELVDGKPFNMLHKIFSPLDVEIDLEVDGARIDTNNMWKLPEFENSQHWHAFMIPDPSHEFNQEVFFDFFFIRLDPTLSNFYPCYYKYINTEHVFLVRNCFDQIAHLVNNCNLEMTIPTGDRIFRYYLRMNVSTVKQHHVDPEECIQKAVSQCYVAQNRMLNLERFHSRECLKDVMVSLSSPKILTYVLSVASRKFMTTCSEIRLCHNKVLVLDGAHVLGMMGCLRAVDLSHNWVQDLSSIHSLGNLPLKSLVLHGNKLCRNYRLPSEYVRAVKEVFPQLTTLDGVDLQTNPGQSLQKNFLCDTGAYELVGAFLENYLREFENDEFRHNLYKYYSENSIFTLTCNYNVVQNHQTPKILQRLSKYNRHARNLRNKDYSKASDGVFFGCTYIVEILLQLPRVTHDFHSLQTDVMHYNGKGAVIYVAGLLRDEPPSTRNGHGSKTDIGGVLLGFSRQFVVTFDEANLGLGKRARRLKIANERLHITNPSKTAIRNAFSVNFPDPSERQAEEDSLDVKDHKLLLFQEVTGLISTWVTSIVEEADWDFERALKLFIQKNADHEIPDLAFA

Substance: Purified Panx^NIR (from UniProt Q9W2H9 315-343) (domain or fragment)
- Kd: 3.2 µM
